Data published in US20150344570A1 (published 2015).

T1: FcγRIIa R extracellular domain with C-terminal His tag (human, UniProt P12318 34-217)
T1 construct: extracellular domain; Soluble receptor, R131 allotype; also called FcgRIIa R; FcgRIIaR; not shown: His tag at the C terminus
T1 sequence (looked up): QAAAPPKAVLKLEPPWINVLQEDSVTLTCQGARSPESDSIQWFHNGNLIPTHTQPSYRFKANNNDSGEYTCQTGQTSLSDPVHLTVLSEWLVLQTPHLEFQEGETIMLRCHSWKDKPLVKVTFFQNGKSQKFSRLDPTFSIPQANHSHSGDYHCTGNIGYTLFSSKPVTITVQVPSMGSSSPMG

T2: FcγRIIa H extracellular domain with C-terminal His tag (human, UniProt P12318 34-217)
T2 construct: extracellular domain; Soluble receptor, H131 allotype; also called FcgRIIa H; FcgRIIaH; not shown: His tag at the C terminus
T2 sequence (looked up): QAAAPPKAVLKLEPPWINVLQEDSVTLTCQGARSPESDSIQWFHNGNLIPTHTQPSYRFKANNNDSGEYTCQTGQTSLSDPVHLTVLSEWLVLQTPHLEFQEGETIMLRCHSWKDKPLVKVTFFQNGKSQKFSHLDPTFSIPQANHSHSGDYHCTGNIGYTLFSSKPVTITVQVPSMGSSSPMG

T3: FcγRIIb extracellular domain with C-terminal His tag (human, UniProt P31994 43-217)
T3 construct: extracellular domain; also called FcgRIIb; CD32B; not shown: His tag at the C terminus
T3 sequence (looked up): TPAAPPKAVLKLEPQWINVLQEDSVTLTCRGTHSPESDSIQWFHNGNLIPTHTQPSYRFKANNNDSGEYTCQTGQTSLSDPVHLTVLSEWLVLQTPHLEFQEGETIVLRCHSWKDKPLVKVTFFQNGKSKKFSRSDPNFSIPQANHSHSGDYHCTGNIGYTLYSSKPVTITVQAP


Experiments:
Assay in all cases: SPR (Biacore); KD of H240-Kn061/H240-Hl071/L73-k0 divided by KD of the variant
[1] = molecular target: T4, FcγRIIIa V extracellular domain with C-terminal His tag (human, UniProt P08637 17-208)
T4 construct: extracellular domain; Soluble receptor, V158 allotype; also called FcgRIIIa V; FcgRIIIaV; not shown: His tag at the C terminus

[2] = molecular target: T1, FcγRIIa R extracellular domain with …
[3] = molecular target: T2, FcγRIIa H extracellular domain with …
[4] = molecular target: T3, FcγRIIb extracellular domain with …
[5] = molecular target: T5, FcγRIIIa F extracellular domain with C-terminal His tag (human, UniProt P08637 17-208)
T5 construct: extracellular domain; Soluble receptor, F158 allotype; also called FcgRIIIa F; FcgRIIIaF; not shown: His tag at the C terminus
T5 sequence (P08637 17-208): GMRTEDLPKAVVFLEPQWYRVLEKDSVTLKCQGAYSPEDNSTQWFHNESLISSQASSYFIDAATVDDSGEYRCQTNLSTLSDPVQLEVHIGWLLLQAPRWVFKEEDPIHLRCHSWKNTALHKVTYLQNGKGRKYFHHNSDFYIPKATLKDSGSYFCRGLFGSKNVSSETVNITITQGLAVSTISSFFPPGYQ

T4 sequence (P08637 17-208 F176V): as the sequence (P08637 17-208) above, with F160V counted along it

| relative KD [1] | relative KD [2] | relative KD [3] | relative KD [4] | relative KD [5] | Binder |
| --- | --- | --- | --- | --- | --- |
| 1 | 1.1 | 0.9 | 0.9 | 1.4 | H240-Kn061/H240-Hl071/L73-k0 variant with V240F introduced into H chain H240-Hl071 (antibody, human IgG1, kappa, Point variant of the heterodimerized anti-epiregulin IgG1 template; also called H240-Hl071 V240F) heavy 1: QDQLVQSGAEVKKPGASVKVSCKASGFNIKDTYIQWVRQAPGQGLEWMGRIDPLRKQTKYREKFEGRVTITADTSTNTAYMELSSLRSEDTAVYYCVRSGREFDYWGQGTLVTVSSASTKGPSVFPLAPSSKSTSGGTAALGCLVKDYFPEPVTVSWNSGALTSGVHTFPAVLQSSGLYSLSSVVTVPSSSLGTQTYICNVNHKPSNTKVDKKVEPKSCDKTHTCPPCPAPEYYWGPSVFLFPPKPKDTLMISRTPEVTCVVVDVSDEDPEVKFNWYVDGVEVHNAKTKPREEQYNATYRVVSVLTVLHQDWLNGKEYKCKVSNKALPAPIEKTISKAKGQPREPQVCTLPPSRDELTKNQVSLWCLVKGFYPSDIAVEWESNGQPENNYKTTPPVLDSDGSFFLYSKLTVDKSRWQQGNVFSCSVMHEALHNHYTQKSLSLSP heavy 2: QDQLVQSGAEVKKPGASVKVSCKASGFNIKDTYIQWVRQAPGQGLEWMGRIDPLRKQTKYREKFEGRVTITADTSTNTAYMELSSLRSEDTAVYYCVRSGREFDYWGQGTLVTVSSASTKGPSVFPLAPSSKSTSGGTAALGCLVKDYFPEPVTVSWNSGALTSGVHTFPAVLQSSGLYSLSSVVTVPSSSLGTQTYICNVNHKPSNTKVDKKVEPKSCDKTHTCPPCPAPELLGGPSFFLFPPKPKDTLMISRTPEVTCVVVDVSHEDPEVKFNWYVDGVEVHNAKTKPREEQYNSTYRVVSVLTVLHQDWLNGKEYKCKVSNDALPMPIEETISKAKGQPREPQVYTLPPSRCELTKNQVSLSCAVKGFYPSDIAVEWESNGQPENNYKTTPPVLDSDGSFFLVSKLTVDKSRWQQGNVFSCSVMHEALHNHYTQKSLSLSP light: DIQMTQSPSSLSASVGDRVTITCRASQDIHKYIAWYQQKPGQAPRLLIQYTSTLQPGVPSRFSGSGSGTDYTFTISSLQPEDIATYYCLQYEQLRTFGGGTKVEIKRTVAAPSVFIFPPSDEQLKSGTASVVCLLNNFYPREAKVQWKVDNALQSGNSQESVTEQDSKDSTYSLSSTLTLSKADYEKHKVYACEVTHQGLSSPVTKSFNRGEC |
| 2 | 1 | 0.7 | 0.7 | 1.3 | H240-Kn061/H240-Hl071/L73-k0 variant with Y235N introduced into H chain H240-Kn061 (antibody, human IgG1, kappa, Point variant of the heterodimerized anti-epiregulin IgG1 template; also called H240-Kn061 Y235N) heavy 1: QDQLVQSGAEVKKPGASVKVSCKASGFNIKDTYIQWVRQAPGQGLEWMGRIDPLRKQTKYREKFEGRVTITADTSTNTAYMELSSLRSEDTAVYYCVRSGREFDYWGQGTLVTVSSASTKGPSVFPLAPSSKSTSGGTAALGCLVKDYFPEPVTVSWNSGALTSGVHTFPAVLQSSGLYSLSSVVTVPSSSLGTQTYICNVNHKPSNTKVDKKVEPKSCDKTHTCPPCPAPEYNWGPSVFLFPPKPKDTLMISRTPEVTCVVVDVSDEDPEVKFNWYVDGVEVHNAKTKPREEQYNATYRVVSVLTVLHQDWLNGKEYKCKVSNKALPAPIEKTISKAKGQPREPQVCTLPPSRDELTKNQVSLWCLVKGFYPSDIAVEWESNGQPENNYKTTPPVLDSDGSFFLYSKLTVDKSRWQQGNVFSCSVMHEALHNHYTQKSLSLSP heavy 2: QDQLVQSGAEVKKPGASVKVSCKASGFNIKDTYIQWVRQAPGQGLEWMGRIDPLRKQTKYREKFEGRVTITADTSTNTAYMELSSLRSEDTAVYYCVRSGREFDYWGQGTLVTVSSASTKGPSVFPLAPSSKSTSGGTAALGCLVKDYFPEPVTVSWNSGALTSGVHTFPAVLQSSGLYSLSSVVTVPSSSLGTQTYICNVNHKPSNTKVDKKVEPKSCDKTHTCPPCPAPELLGGPSVFLFPPKPKDTLMISRTPEVTCVVVDVSHEDPEVKFNWYVDGVEVHNAKTKPREEQYNSTYRVVSVLTVLHQDWLNGKEYKCKVSNDALPMPIEETISKAKGQPREPQVYTLPPSRCELTKNQVSLSCAVKGFYPSDIAVEWESNGQPENNYKTTPPVLDSDGSFFLVSKLTVDKSRWQQGNVFSCSVMHEALHNHYTQKSLSLSP light: DIQMTQSPSSLSASVGDRVTITCRASQDIHKYIAWYQQKPGQAPRLLIQYTSTLQPGVPSRFSGSGSGTDYTFTISSLQPEDIATYYCLQYEQLRTFGGGTKVEIKRTVAAPSVFIFPPSDEQLKSGTASVVCLLNNFYPREAKVQWKVDNALQSGNSQESVTEQDSKDSTYSLSSTLTLSKADYEKHKVYACEVTHQGLSSPVTKSFNRGEC |
| 1.6 | 1.4 | 0.7 | 0.5 | 1.9 | H240-Kn061/H240-Hl071/L73-k0 variant with Y234E introduced into H chain H240-Kn061 (antibody, human IgG1, kappa, Point variant of the heterodimerized anti-epiregulin IgG1 template; also called H240-Kn061 Y234E) heavy 1: QDQLVQSGAEVKKPGASVKVSCKASGFNIKDTYIQWVRQAPGQGLEWMGRIDPLRKQTKYREKFEGRVTITADTSTNTAYMELSSLRSEDTAVYYCVRSGREFDYWGQGTLVTVSSASTKGPSVFPLAPSSKSTSGGTAALGCLVKDYFPEPVTVSWNSGALTSGVHTFPAVLQSSGLYSLSSVVTVPSSSLGTQTYICNVNHKPSNTKVDKKVEPKSCDKTHTCPPCPAPEEYWGPSVFLFPPKPKDTLMISRTPEVTCVVVDVSDEDPEVKFNWYVDGVEVHNAKTKPREEQYNATYRVVSVLTVLHQDWLNGKEYKCKVSNKALPAPIEKTISKAKGQPREPQVCTLPPSRDELTKNQVSLWCLVKGFYPSDIAVEWESNGQPENNYKTTPPVLDSDGSFFLYSKLTVDKSRWQQGNVFSCSVMHEALHNHYTQKSLSLSP heavy 2: QDQLVQSGAEVKKPGASVKVSCKASGFNIKDTYIQWVRQAPGQGLEWMGRIDPLRKQTKYREKFEGRVTITADTSTNTAYMELSSLRSEDTAVYYCVRSGREFDYWGQGTLVTVSSASTKGPSVFPLAPSSKSTSGGTAALGCLVKDYFPEPVTVSWNSGALTSGVHTFPAVLQSSGLYSLSSVVTVPSSSLGTQTYICNVNHKPSNTKVDKKVEPKSCDKTHTCPPCPAPELLGGPSVFLFPPKPKDTLMISRTPEVTCVVVDVSHEDPEVKFNWYVDGVEVHNAKTKPREEQYNSTYRVVSVLTVLHQDWLNGKEYKCKVSNDALPMPIEETISKAKGQPREPQVYTLPPSRCELTKNQVSLSCAVKGFYPSDIAVEWESNGQPENNYKTTPPVLDSDGSFFLVSKLTVDKSRWQQGNVFSCSVMHEALHNHYTQKSLSLSP light: DIQMTQSPSSLSASVGDRVTITCRASQDIHKYIAWYQQKPGQAPRLLIQYTSTLQPGVPSRFSGSGSGTDYTFTISSLQPEDIATYYCLQYEQLRTFGGGTKVEIKRTVAAPSVFIFPPSDEQLKSGTASVVCLLNNFYPREAKVQWKVDNALQSGNSQESVTEQDSKDSTYSLSSTLTLSKADYEKHKVYACEVTHQGLSSPVTKSFNRGEC |
